Assay [1] addresses T1, cynomolgus monkey SIRPγ-His monomer protein (cynomolgus monkey, UniProt Q9P1W8 29-359 (human entry), limits assumed).
T1 construct: also called Cyno SIRPγ; Cyno SIRPγ-His
T1 chain: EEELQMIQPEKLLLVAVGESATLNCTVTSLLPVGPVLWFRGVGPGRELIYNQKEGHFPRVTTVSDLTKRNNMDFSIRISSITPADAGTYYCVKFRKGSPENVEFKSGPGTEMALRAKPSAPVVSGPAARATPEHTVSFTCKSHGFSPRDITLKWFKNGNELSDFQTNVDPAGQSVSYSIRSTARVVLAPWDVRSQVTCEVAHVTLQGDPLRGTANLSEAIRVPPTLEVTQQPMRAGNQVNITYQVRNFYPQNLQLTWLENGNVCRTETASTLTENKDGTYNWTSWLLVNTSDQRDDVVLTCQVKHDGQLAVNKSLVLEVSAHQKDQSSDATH
Description: BLI Octet, captured scFv PPE, cyno SIRP. As to the method:
Unique binders were further tested for binding to human SIRPαV1, human SIRPαV2, and human SIRPβ1. Briefly, biotinylated anti-V5 was immobilized onto streptavidin biosensors. Each V5-tagged SIRPγ scFv antibody as crude PPE was captured by the anti-V5 antibody. SIRP-His monomer protein at 500 nM was exposed to the biosensor for binding to SIRP scFv. The biosensors were then exposed to wash buffer to measure off-rate kinetics. The resulting association and dissociation kinetics (kdis) was analyzed. […] Similarly, cross-reactivity to cynomolgus monkey SIRPγ, cynomolgus monkey SIRPα, and cynomolgus monkey SIRPβ1 were tested.
(In general: Biolayer interferometry detects binding as a change in optical thickness at a sensor tip.)

Assay [2] addresses T2, human SIRPγ-His monomer protein (human, UniProt Q9P1W8 29-360).
T2 construct: also called hSIRPγ
As to the kind of experiment: BLI Octet, V5-scFv PPE captured, SIRP-His 500 nM.

Assay [3] has as its target T3, cynomolgus monkey SIRPγ on CHO cells (cynomolgus monkey, UniProt Q9P1W8 29-386 (human entry)).
T3 construct: also called Cyno SIRPγ CHO
T3 chain: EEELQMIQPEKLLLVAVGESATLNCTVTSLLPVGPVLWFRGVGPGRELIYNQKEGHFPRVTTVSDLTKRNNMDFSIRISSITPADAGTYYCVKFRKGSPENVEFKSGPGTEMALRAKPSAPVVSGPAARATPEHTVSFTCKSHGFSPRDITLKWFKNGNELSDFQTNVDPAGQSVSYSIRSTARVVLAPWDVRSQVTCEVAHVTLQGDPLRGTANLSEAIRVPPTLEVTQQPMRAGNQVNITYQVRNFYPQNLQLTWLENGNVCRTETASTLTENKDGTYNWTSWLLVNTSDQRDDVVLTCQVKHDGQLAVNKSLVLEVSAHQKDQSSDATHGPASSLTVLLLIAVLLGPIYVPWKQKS
As to the kind of experiment: flow cytometry, myc-scFv PPE. In a few lines:
(§1)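 The CHO lines were stably transfected, with SIRPβ1 co-transfected with DAP12 where present. Titrated antibody was detected by labelled anti-human IgG and scored as MFI. The myc-scFv PPE was screened on these lines and on CHO-K1 parental cells, and fold change <2.0 was classed as non-binder.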
(In flow cytometry, cells or beads pass a laser one at a time.)

Assay [4] has as its target T4, human SIRPγ on stably transfected CHO cells (human, UniProt Q9P1W8 29-387).
T4 construct: also called Human SIRPγ CHO
As to the kind of experiment: flow cytometry, myc-scFv PPE. In a few lines: as §1

Assay [5] concerns the target T5, human SIRPβ1 on CHO cells (co-transfected with DAP12) (human, UniProt O00241 30-398).
T5 construct: whole, on cells; co-transfected with DAP12; also called Human SIRPβ1 CHO
Description: flow cytometry.

In assay [6] the target is T6, cynomolgus monkey SIRPα on CHO cells (cynomolgus monkey, UniProt A0A2K5VYQ9 31-507).
T6 construct: whole, on cells; also called Cyno SIRPα CHO
T6 sequence: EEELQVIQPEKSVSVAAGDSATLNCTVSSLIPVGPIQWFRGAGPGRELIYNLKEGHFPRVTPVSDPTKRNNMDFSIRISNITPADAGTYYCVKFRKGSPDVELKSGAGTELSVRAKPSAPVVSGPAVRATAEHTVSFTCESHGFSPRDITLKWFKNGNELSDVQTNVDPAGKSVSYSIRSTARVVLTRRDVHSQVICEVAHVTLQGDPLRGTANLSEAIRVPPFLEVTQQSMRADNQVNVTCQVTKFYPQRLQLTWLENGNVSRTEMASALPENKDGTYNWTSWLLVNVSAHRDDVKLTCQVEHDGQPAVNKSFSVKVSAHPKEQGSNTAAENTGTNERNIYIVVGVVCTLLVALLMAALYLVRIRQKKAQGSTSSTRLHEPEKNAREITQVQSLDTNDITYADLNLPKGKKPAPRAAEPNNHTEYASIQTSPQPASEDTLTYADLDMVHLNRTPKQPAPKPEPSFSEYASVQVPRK
Description: flow cytometry.

T4 sequence (Q9P1W8 29-387 limits assumed): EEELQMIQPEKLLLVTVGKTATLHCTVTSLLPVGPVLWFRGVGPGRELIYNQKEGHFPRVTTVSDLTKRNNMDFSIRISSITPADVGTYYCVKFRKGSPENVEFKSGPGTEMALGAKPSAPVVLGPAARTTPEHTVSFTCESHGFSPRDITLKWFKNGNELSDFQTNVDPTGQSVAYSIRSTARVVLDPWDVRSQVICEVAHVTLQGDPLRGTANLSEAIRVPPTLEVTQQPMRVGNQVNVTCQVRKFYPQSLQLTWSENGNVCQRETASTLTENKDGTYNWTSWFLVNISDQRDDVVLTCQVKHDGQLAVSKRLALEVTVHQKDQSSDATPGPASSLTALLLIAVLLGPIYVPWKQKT
T2 sequence (Q9P1W8 29-360 limits assumed): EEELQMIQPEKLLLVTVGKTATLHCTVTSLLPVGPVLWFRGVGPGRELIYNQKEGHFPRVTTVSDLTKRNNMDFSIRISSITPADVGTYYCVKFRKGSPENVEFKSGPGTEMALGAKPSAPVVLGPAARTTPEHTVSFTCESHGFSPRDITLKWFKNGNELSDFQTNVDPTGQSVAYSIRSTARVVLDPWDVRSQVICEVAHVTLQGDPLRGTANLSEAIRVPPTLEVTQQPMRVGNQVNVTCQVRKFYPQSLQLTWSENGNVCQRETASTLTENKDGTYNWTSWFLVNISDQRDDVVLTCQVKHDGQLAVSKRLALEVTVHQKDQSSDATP
T5 sequence (O00241 30-398): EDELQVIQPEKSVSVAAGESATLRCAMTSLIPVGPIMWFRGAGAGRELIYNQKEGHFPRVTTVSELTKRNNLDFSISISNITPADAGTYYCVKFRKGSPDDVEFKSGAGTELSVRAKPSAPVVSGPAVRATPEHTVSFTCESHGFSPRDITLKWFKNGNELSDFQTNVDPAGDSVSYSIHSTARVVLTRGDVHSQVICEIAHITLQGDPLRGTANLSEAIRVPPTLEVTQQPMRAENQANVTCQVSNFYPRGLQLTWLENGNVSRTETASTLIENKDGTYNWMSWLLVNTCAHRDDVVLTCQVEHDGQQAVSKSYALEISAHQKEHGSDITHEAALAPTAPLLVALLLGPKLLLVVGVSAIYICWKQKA

B1: Antibody 15 (scFv, V domains shown)
VH: QVQLVQSGAEVKKPGASVKVSCKASGYSFTSYGISWVRQAPGQGLEWMGWISPYNGNTNYAQKLQGRVTMTRDTSTSTVYMELSSLRSEDTAVYYCAREAYGDYGDYFDYWGQGTLVTVSS
VL: DIQMTQSPSSLSASVGDRVTITCRASQGVGDRSAWYQQKPGKAPKLLIYDASNLETGVPSRFSGSGSGTDFTLTISSLQPEDFATYYCQQADTFPYTFGQGTKLEIK
notes: scFv in crude PPE, V5/myc-tagged
For B1, the binding result was “binds” in assay [1], “no binding (tested: fold change <2.0)” in assay [5] and “no binding (tested: fold change <2.0)” in assay [6]. The molecule further displayed a kdis in assay [2] of 0.001 to 0.01 s⁻¹. Besides, the “MFI fold change over parental CHO” value was 3.71 fold in assay [3] and 17 fold in assay [4].

B2: Antibody 10 (scFv, V domains shown)
VH: QVQLVQSGAEVKKPGASVKVSCKASGGTFSNYDISWVRQAPGQGLEWMGMIDPSGGSTSYAQKFQGRVTMTRDTSTSTVYMELSSLRSEDTAVYYCARPYSSGWYYFDYWGQGTLVTVSS
VL: DIQMTQSPSSLSASVGDRVTITCQASQDIHNYLNWYQQKPGKAPKLLIYDASNLETGVPSRFSGSGSGTDFTLTISSLQPEDFATYYCQQSYNTPPTFGQGTRLEIK
notes: as for B1
For B2, the values for the binding result in assay [1], in assay [5] and in assay [6] were “binds”, “no binding (tested: fold change <2.0)” and “no binding (tested: fold change <2.0)”, respectively. This molecule returned a kdis in assay [2] of 0.001 to 0.01 s⁻¹. In addition, the “MFI fold change over parental CHO” value in assay [3] was 23.1 fold; in assay [4], 38.3 fold.

B3: Antibody 23 (scFv, V domains shown)
VH: QVQLVQSGAEVKKPGASVKVSCKASGGTFSNYDINWVRQAPGQGLEWMGWISAYNGNTNYAQKLQGRVTMTRDTSTSTVYMELSSLRSEDTAVYYCAAEAYGDYSLDPWGQGTLVTVSS
VL: DIQMTQSPSSLSASVGDRVTITCQASQGISSYLNWYQQKPGKAPKLLIYAASSLQNGVPSRFSGSGSGTDFTLTISSLQPEDFATYYCQQSYSTPITFGQGTRLEIK
notes: as for B1
For B3, the binding result in assay [1] was “binds”; in assay [5], “no binding (tested: fold change <2.0)”; in assay [6], “no binding (tested: fold change <2.0)”. Also, the kdis in assay [2] lay within 0.001 to 0.01 s⁻¹. For the same molecule, the “MFI fold change over parental CHO” value in assay [3] is 16.5 fold; in assay [4], 21.6 fold.

B4: Antibody 47 (scFv, V domains shown)
VH: QVQLVQSGAEVKKPGASVKVSCKASGYTFTTYGISWVRQAPGQGLEWMGWMDPNSGSTGYAQKFQGRVTMTRDTSTSTVYMELSSLRSEDTAVYYCARGRGNSYYYYYMDVWGKGTTVTVSS
VL: DIQMTQSPSSLSASVGDRVTITCRASQRIGSYLNWYQQKPGKAPKLLIYGASNLQSGVPSRFSGSGSGTDFTLTISSLQPEDFATYYCQQANSFPFTFGPGTKVDIK
notes: as for B1
On to B4, for which the binding result was “binds” in assay [1], “no binding (tested: fold change <2.0)” in assay [5] and “no binding (tested: fold change <2.0)” in assay [6]. For the same molecule, the kdis in assay [2] was greater than 0.01 s⁻¹. Further, the entries for the “MFI fold change over parental CHO” value in assay [3] and in assay [4] were 14.2 fold and 17.3 fold, respectively.

B5: Antibody 50 (scFv, V domains shown)
VH: QVQLVQSGAEVKKPGASVKVSCKASGYTFTGYYMHWVRQAPGQGLEWMGTINPSGGSTSYAQKFQGRVTMTRDTSTSTVYMELSSLRSEDTAVYYCVKGNGYYDLWGQGTLVTVSS
VL: DIQMTQSPSSLSASVGDRVTITCRASQSISSWLAWYQQKPGKAPKLLIYDTSNLQGGVPSRFSGSGSGTDFTLTISSLQPEDFATYYCQQYDSFPWTFGQGTKVEIK
notes: as for B1
Turning to B5, the binding result is “binds” in assay [1], “no binding (tested: fold change <2.0)” in assay [5] and “no binding (tested: fold change <2.0)” in assay [6]. The kdis in assay [2] is greater than 0.01 s⁻¹. Moreover, the “MFI fold change over parental CHO” value stood at 30.8 fold in assay [3] and 12.8 fold in assay [4].

B6: Antibody 18 (scFv, V domains shown)
VH: QVQLVQSGAEVKKPGASVKVSCKASGYTFTGYYMHWVRQAPGQGLEWMGWMNPNSGNTGYAQKFQGRVTMTRDTSTSTVYMELSSLRSEDTAVYYCARGSGYDAGVFDYWGQGTLVTVSS
VL: DIQMTQSPSSLSASVGDRVTITCRASQGIGNDLAWYQQKPGKAPKLLIYDAKDLHPGVPSRFSGSGSGTDFTLTISSLQPEDFATYYCQQSYSFPRTFGQGTRLEIK
notes: as for B1
For the molecule B6, the binding result in assay [1] was “binds”; in assay [5], “no binding (tested: fold change <2.0)”; in assay [6] it was “no binding (tested: fold change <2.0)”. Further, the kdis in assay [2] was in the range of 0.001 to 0.01 s⁻¹. Besides, the figures for the “MFI fold change over parental CHO” value in assay [3] and in assay [4] were 16.2 fold and 25.2 fold, respectively.

B7: Antibody 49 (scFv, V domains shown)
VH: QVQLVQSGAEVKKPGSSVKVSCKASGGTFSSYAISWVRQAPGQGLEWMGVINPSGGSTSYAQKFQGRVTITADESTSTAYMELSSLRSEDTAVYYCARESRGYYGMDVWGQGTTVTVSS
VL: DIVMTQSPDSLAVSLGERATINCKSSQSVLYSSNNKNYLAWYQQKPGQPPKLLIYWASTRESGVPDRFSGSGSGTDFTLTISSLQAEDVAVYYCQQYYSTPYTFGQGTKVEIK
notes: as for B1
As for B7, the binding result is listed as “binds” in assay [1], “no binding (tested: fold change <2.0)” in assay [5] and “no binding (tested: fold change <2.0)” in assay [6]. For the same molecule, the kdis in assay [2] was greater than 0.01 s⁻¹. For the same molecule, the figures for the “MFI fold change over parental CHO” value in assay [3] and in assay [4] were 18.3 fold and 18.6 fold, respectively.

B8: Antibody 41 (scFv, V domains shown)
VH: QVQLVQSGAEVKKPGSSVKVSCKASGGTFSNYAISWVRQAPGQGLEWMGGIIPIFGSTASYAQKFQGRVTITADESTSTAYMELSSLRSEDTAVYYCARGVGDDTLTDWGQGTLVTVSS
VL: DIVMTQSPLSLPVTPGEPASISCRSSQSLLHSNGYNYLDWYLQKPGQSPQLLIYAASSLQSGVPDRFSGSGSGTDFTLKISRVEAEDVGVYYCMQALQTPLTFGGGTKVEIK
notes: as for B1
With B8, the binding result is given as “binds” in assay [1], “no binding (tested: fold change <2.0)” in assay [5] and “no binding (tested: fold change <2.0)” in assay [6]. In assay [2], this molecule came in with a kdis greater than 0.01 s⁻¹. Besides, the results for the “MFI fold change over parental CHO” value in assay [3] and in assay [4] were 36.1 fold and 25.5 fold, respectively.

B9: Antibody 42 (scFv, V domains shown)
VH: QVQLVQSGAEVKKPGASVKVSCKASGYTFTSYHMHWVRQAPGQGLEWMGWMNPNSGNTGYAQKFQGRVTMTRDTSTSTVYMELSSLRSEDTAVYYCARGGRVVRGVIKGWFDPWGQGTLVTVSS
VL: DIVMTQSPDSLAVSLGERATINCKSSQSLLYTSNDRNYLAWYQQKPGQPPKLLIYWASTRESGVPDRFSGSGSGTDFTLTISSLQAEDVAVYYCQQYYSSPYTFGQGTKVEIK
notes: as for B1
As to B9, the binding result is “binds” in assay [1], “no binding (tested: fold change <2.0)” in assay [5] and “no binding (tested: fold change <2.0)” in assay [6]. In assay [2], the kdis was greater than 0.01 s⁻¹. Moreover, the “MFI fold change over parental CHO” value is 14.5 fold in assay [3] and 15.9 fold in assay [4].
